Experimental data: the Human Domainome abundance scans (Beltran et al. 2025)
± gives the uncertainty stated by the source.

B1: E3 ubiquitin-protein ligase Midline-1, residues 172 to 214; numbered along this chain, O15344 (parent)
chain: GLMCLEHEDEKVNMYCVTDDQLICALCKLVGRHRDHQVAALSE

Variants of: B1
Assay: abundance fitness (aPCA) (normalised: wild type 0, dead -1); higher = more abundant; growth selection in yeast, the domain comes from the species named
Conditions: Homo sapiens

In order of rising abundance fitness:
1. GLMCLEHEDEKVNMYCVTMDQLICALCKLVGRHRDHQVAALSE [D19M]  -1.1 ± 0.19
2. GLMCLEHEDEKVNMYCVTLDQLICALCKLVGRHRDHQVAALSE [D19L]  -1.04 ± 0.22
3. GLMCLEHEDEKVNMYCVTADQLICALCKLVGRHRDHQVAALSE [D19A]  -0.928 ± 0.088
4. GLMCLEHEDEKVNMYCVTKDQLICALCKLVGRHRDHQVAALSE [D19K]  -0.759 ± 0.18
5. GLMCLEHEDEKVNMYCVTPDQLICALCKLVGRHRDHQVAALSE [D19P]  -0.723 ± 0.16
6. GLMCLEHEDEKVNMYCVTGDQLICALCKLVGRHRDHQVAALSE [D19G]  -0.72 ± 0.087
7. GLMCLEHEDEKVNMYCVTRDQLICALCKLVGRHRDHQVAALSE [D19R]  -0.65 ± 0.073
8. GLMCLEHEDEKVNMYCVTQDQLICALCKLVGRHRDHQVAALSE [D19Q]  -0.557 ± 0.14
9. GLMCLEHEDEKVNMYCVWDDQLICALCKLVGRHRDHQVAALSE [T18W]  -0.532 ± 0.094
10. GLMCLEHEDEKVNMYCVTHDQLICALCKLVGRHRDHQVAALSE [D19H]  -0.496 ± 0.16
11. GLMCLEHEDEKVNMYCVPDDQLICALCKLVGRHRDHQVAALSE [T18P]  -0.492 ± 0.14
12. GLMCLEHEDEKVNMYCVYDDQLICALCKLVGRHRDHQVAALSE [T18Y]  -0.482 ± 0.23
13. GLMCLEHEDEKVNFYCVTDDQLICALCKLVGRHRDHQVAALSE [M14F]  -0.451 ± 0.49
14. GLMCLEHEDEKVNMYCVMDDQLICALCKLVGRHRDHQVAALSE [T18M]  -0.394 ± 0.15
15. GLMCLEHEDEKVNMYCVTSDQLICALCKLVGRHRDHQVAALSE [D19S]  -0.377 ± 0.096
16. GLMCLEHEDEKVNMYCVLDDQLICALCKLVGRHRDHQVAALSE [T18L]  -0.32 ± 0.066
17. GLMCLEHEDEKVNMTCVTDDQLICALCKLVGRHRDHQVAALSE [Y15T]  -0.288 ± 0.086
18. GLMCLEHEDEKVNMYCVCDDQLICALCKLVGRHRDHQVAALSE [T18C]  -0.256 ± 0.1
19. GLMCLEHEDEKVNMYCVTFDQLICALCKLVGRHRDHQVAALSE [D19F]  -0.218 ± 0.27
20. GLMCLEHEDEKVNMYCWTDDQLICALCKLVGRHRDHQVAALSE [V17W]  -0.176 ± 0.07
21. GLMCLEHEDEKVNMYCVTCDQLICALCKLVGRHRDHQVAALSE [D19C]  -0.175 ± 0.14
22. GLMCLEHEDEKVNMNCVTDDQLICALCKLVGRHRDHQVAALSE [Y15N]  -0.165 ± 0.13
23. GLMCLEHEDEKVNMYCVDDDQLICALCKLVGRHRDHQVAALSE [T18D]  -0.152 ± 0.079
24. GLMCLEHEDEKVNMYCVRDDQLICALCKLVGRHRDHQVAALSE [T18R]  -0.101 ± 0.057
25. GLMCLEHEDEKVNMYCVTNDQLICALCKLVGRHRDHQVAALSE [D19N]  -0.095 ± 0.22
26. GLMCLEHEDEKVNMYCLTDDQLICALCKLVGRHRDHQVAALSE [V17L]  -0.094 ± 0.061
27. GLMCLEHEDEKVNMMCVTDDQLICALCKLVGRHRDHQVAALSE [Y15M]  -0.094 ± 0.093
28. GLMCLEHEDEKVNMWCVTDDQLICALCKLVGRHRDHQVAALSE [Y15W]  -0.089 ± 0.095
29. GLMCLEHEDEKVNMYCVVDDQLICALCKLVGRHRDHQVAALSE [T18V]  -0.077 ± 0.064
30. GLMCLEHEDEKVNMYCVQDDQLICALCKLVGRHRDHQVAALSE [T18Q]  -0.073 ± 0.1
31. GLMCLEHEDEKVNMYCYTDDQLICALCKLVGRHRDHQVAALSE [V17Y]  -0.071 ± 0.16
32. GLMCLEHEDEKVNMYCVNDDQLICALCKLVGRHRDHQVAALSE [T18N]  -0.048 ± 0.45
33. GLMCLEHEDEKVNMYCTTDDQLICALCKLVGRHRDHQVAALSE [V17T]  -0.027 ± 0.069
34. GLMCLEHEDEKVNMSCVTDDQLICALCKLVGRHRDHQVAALSE [Y15S]  -0.023 ± 0.061
35. GLMCLEHEDEKVNMYCVKDDQLICALCKLVGRHRDHQVAALSE [T18K]  -0.019 ± 0.063
36. GLMCLEHEDEKVNMGCVTDDQLICALCKLVGRHRDHQVAALSE [Y15G]  -0.015 ± 0.046
37. GLMCLEHEDEKVNMVCVTDDQLICALCKLVGRHRDHQVAALSE [Y15V]  -0.014 ± 0.059
38. GLMCLEHEDEKVNMYCVTEDQLICALCKLVGRHRDHQVAALSE [D19E]  -0.012 ± 0.052
39. GLMCLEHEDEKVNMECVTDDQLICALCKLVGRHRDHQVAALSE [Y15E]  0.001 ± 0.058
40. GLMCLEHEDEKVNMLCVTDDQLICALCKLVGRHRDHQVAALSE [Y15L]  0.014 ± 0.063
41. GLMCLEHEDEKVNMACVTDDQLICALCKLVGRHRDHQVAALSE [Y15A]  0.045 ± 0.051
42. GLMCLEHEDEKVNMCCVTDDQLICALCKLVGRHRDHQVAALSE [Y15C]  0.059 ± 0.072
43. GLMCLEHEDEKVNGYCVTDDQLICALCKLVGRHRDHQVAALSE [M14G]  0.059 ± 0.045
44. GLMCLEHEDEKVNMYCGTDDQLICALCKLVGRHRDHQVAALSE [V17G]  0.092 ± 0.045
45. GLMCLEHEDEKVNMYCDTDDQLICALCKLVGRHRDHQVAALSE [V17D]  0.113 ± 0.067
46. GLMCLEHEDEKVNMYCETDDQLICALCKLVGRHRDHQVAALSE [V17E]  0.135 ± 0.06
47. GLMCLEHEDEKVNMHCVTDDQLICALCKLVGRHRDHQVAALSE [Y15H]  0.151 ± 0.14
48. GLMCLEHEDEKVNMYCATDDQLICALCKLVGRHRDHQVAALSE [V17A]  0.172 ± 0.049
49. GLMCLEHEDEKVNMYCCTDDQLICALCKLVGRHRDHQVAALSE [V17C]  0.173 ± 0.072
50. GLMCLEHEDEKVNMYCSTDDQLICALCKLVGRHRDHQVAALSE [V17S]  0.174 ± 0.051
51. GLMCLEHEDEKVNMYCRTDDQLICALCKLVGRHRDHQVAALSE [V17R]  0.176 ± 0.048
52. GLMCLEHEDEKVNMYCITDDQLICALCKLVGRHRDHQVAALSE [V17I]  0.235 ± 0.12
53. GLMCLEHEDEKVNMRCVTDDQLICALCKLVGRHRDHQVAALSE [Y15R]  0.258 ± 0.047
54. GLMCLEHEDEKVNMYCQTDDQLICALCKLVGRHRDHQVAALSE [V17Q]  0.275 ± 0.065
55. GLMCLEHEDEKVNMKCVTDDQLICALCKLVGRHRDHQVAALSE [Y15K]  0.28 ± 0.078
56. GLMCLEHEDEKVNMYCHTDDQLICALCKLVGRHRDHQVAALSE [V17H]  0.29 ± 0.095
57. GLMCLEHEDEKVNMQCVTDDQLICALCKLVGRHRDHQVAALSE [Y15Q]  0.315 ± 0.075
58. GLMCLEHEDEKVNMYCKTDDQLICALCKLVGRHRDHQVAALSE [V17K]  0.444 ± 0.065
59. GLMCLEHEDEKVNMYCNTDDQLICALCKLVGRHRDHQVAALSE [V17N]  0.545 ± 0.22
